Laboratory results reported in patent publication US20130064834A1 (published 2013).
Blank lines part the entries; values can stand above or below the binder they belong to.

How the values were obtained:
Human PCSK9-myc-myc-his [1] = target: T1, Human PCSK9-myc-myc-his (human, UniProt Q8NBP7 31-692); test: competition ELISA vs EGF-A-hFc, pH 5.5
T1 construct: also called hPCSK9-mmh; hPCSK9
Protocol: (§1) Briefly, hLDLR-ecto, hLDLR EGF-A-hFc or hLDLR EGF-AB-hFc, each at 2 μg/ml, was coated on a 96-well plate in PBS buffer overnight at 4° C., and nonspecific binding sites blocked with BSA. […] The equilibrated sample solutions were transferred to receptor or receptor fragment coated plates.

hPCSK9(D374Y)-mmh [2] = target: T2, hPCSK9(D374Y)-mmh (human, UniProt Q8NBP7 31-692); test: SPR, mAb amine-coupled, 37C, pH 7.4
T2 construct: also called hPCSK(D374Y)-mmh
Description: (§2) Briefly, mAbs were immobilized onto BIACORE™ CM5 sensor chips via amine coupling.

Human PCSK9-myc-myc-his [3] = target: T1, Human PCSK9-myc-myc-his; test: SPR, mAb amine-coupled, 37C, pH 7.4
Description: as §2

Human PCSK9-myc-myc-his [4] = target: T1, Human PCSK9-myc-myc-his; test: SPR, antigen captured at low density, pH 7.4, 25C
Human PCSK9-myc-myc-his [5] = target: T1, Human PCSK9-myc-myc-his; test: competition ELISA vs EGF-AB-hFc, pH 7.2
Protocol: as §1

Human PCSK9-myc-myc-his [6] = target: T1, Human PCSK9-myc-myc-his; test: competition ELISA vs EGF-A-hFc, pH 7.2
Protocol: as §1

[7] = target: T3, Chimeric protein #1 (mPro-hCat-mC-term-mmh) (mouse; human, UniProt Q80W65 35-694); test: ELISA, mAb coated, 1.7 nM antigen
T3 chain: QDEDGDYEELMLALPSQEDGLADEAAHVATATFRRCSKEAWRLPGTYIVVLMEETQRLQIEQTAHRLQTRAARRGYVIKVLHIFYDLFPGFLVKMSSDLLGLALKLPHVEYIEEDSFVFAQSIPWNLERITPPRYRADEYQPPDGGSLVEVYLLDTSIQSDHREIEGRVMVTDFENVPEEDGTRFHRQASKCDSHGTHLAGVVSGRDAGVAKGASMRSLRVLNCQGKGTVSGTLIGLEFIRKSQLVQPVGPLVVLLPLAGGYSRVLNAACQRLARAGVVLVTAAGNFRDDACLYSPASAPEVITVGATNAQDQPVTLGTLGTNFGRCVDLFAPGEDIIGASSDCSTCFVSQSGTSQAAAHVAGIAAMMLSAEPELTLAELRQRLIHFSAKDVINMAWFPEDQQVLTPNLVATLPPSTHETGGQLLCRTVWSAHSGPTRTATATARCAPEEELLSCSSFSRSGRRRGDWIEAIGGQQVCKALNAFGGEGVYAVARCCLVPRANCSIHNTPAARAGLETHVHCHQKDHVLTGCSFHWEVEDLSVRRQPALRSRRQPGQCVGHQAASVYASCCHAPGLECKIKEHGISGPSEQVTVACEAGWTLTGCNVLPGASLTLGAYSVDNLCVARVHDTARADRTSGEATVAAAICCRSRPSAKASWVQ

hPCSK9(D374Y)-mmh [8] = target: T2, hPCSK9(D374Y)-mmh; test: ELISA, mAb coated, 1.7 nM antigen
[9] = target: T4, Chimeric protein #2 (hPro-mCat-mC-term-mmh) (human; mouse, UniProt Q80W65 19-694); test: ELISA, mAb coated, 1.7 nM antigen
[10] = target: T5, rat (Rattus norvegicus) PCSK9, myc-myc-his tagged (rat (Rattus norvegicus), UniProt P59996 31-691); test: ELISA, mAb coated, 1.7 nM antigen
T5 construct: also called rPCSK9-mmh; rPCSK9

[11] = target: T6, mouse PCSK9, myc-myc-his tagged (mouse, UniProt Q80W65 35-694); test: ELISA, mAb coated, 1.7 nM antigen
T6 construct: also called mPCSK9-mmh; mPCSK9

[12] = target: T7, cynomolgus monkey (Macaca fascicularis) PCSK9, myc-myc-his tagged (cynomolgus monkey (Macaca fascicularis), UniProt A8T662 31-692 (Macaca nemestrina entry), limits assumed); test: ELISA, mAb coated, 1.7 nM antigen
T7 construct: also called mfPCSK9-mmh; mfPCSK9

Human PCSK9-myc-myc-his [13] = target: T1, Human PCSK9-myc-myc-his; test: ELISA, mAb coated, 1.7 nM antigen
[14] = target: T8, tagged rhesus monkey (Macaca mulata) PCSK9 (rhesus monkey (Macaca mulata), UniProt A8T666 31-692); test: ELISA, mAb coated, 1.7 nM antigen
T8 construct: also called mmPCSK9-mmh; mmPCSK9

hPCSK9(D374Y)-mmh [15] = target: T2, hPCSK9(D374Y)-mmh; test: SPR, mAb amine-coupled, 25C, pH 5.5
Description: as §2

[16] = target: T7, cynomolgus monkey (Macaca fascicularis) …; test: SPR, mAb amine-coupled, 25C, pH 5.5
Description: as §2

Human PCSK9-myc-myc-his [17] = target: T1, Human PCSK9-myc-myc-his; test: SPR, mAb amine-coupled, 25C, pH 5.5
Description: as §2

hPCSK9(D374Y)-mmh [18] = target: T2, hPCSK9(D374Y)-mmh; test: competition ELISA vs EGF-AB-hFc, pH 7.2
Protocol: as §1

[19] = target: T3, Chimeric protein #1 …; test: SPR, mAb captured on anti-hFc, 100 nM antigen
Protocol: (§3) Changes in RU due to the binding of each protein to the mAb surface was determined.

[20] = target: T4, Chimeric protein #2 …; test: SPR, mAb captured on anti-hFc, 100 nM antigen
Protocol: as §3

[21] = target: T6, mouse PCSK9, myc-myc-his tagged; test: SPR, mAb captured on anti-hFc, 100 nM antigen
Protocol: as §3

Human PCSK9-myc-myc-his [22] = target: T1, Human PCSK9-myc-myc-his; test: SPR, mAb captured on anti-hFc, 100 nM antigen
Protocol: as §3

hPCSK9(D374Y)-mmh [23] = target: T2, hPCSK9(D374Y)-mmh; test: competition ELISA vs EGF-A-hFc, pH 7.2
Protocol: as §1

T7 sequence (A8T662 31-692 limits assumed): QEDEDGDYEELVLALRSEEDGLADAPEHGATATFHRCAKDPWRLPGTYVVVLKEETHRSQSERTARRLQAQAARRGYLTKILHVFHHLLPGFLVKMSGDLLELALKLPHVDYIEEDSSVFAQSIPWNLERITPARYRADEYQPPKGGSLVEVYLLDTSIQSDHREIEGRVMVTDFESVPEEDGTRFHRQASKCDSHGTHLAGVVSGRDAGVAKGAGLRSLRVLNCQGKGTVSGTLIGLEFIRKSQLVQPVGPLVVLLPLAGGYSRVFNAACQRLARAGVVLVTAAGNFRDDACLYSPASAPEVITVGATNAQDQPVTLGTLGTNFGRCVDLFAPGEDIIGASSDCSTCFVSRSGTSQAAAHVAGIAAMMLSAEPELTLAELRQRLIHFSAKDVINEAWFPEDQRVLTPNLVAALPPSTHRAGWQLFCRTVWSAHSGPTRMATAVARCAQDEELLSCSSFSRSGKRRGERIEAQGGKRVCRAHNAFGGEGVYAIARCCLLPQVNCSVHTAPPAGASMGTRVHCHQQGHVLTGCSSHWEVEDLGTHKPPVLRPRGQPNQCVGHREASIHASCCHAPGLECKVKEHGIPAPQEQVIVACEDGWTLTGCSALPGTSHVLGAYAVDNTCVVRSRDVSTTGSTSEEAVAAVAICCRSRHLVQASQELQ
T5 sequence (P59996 31-691 limits assumed): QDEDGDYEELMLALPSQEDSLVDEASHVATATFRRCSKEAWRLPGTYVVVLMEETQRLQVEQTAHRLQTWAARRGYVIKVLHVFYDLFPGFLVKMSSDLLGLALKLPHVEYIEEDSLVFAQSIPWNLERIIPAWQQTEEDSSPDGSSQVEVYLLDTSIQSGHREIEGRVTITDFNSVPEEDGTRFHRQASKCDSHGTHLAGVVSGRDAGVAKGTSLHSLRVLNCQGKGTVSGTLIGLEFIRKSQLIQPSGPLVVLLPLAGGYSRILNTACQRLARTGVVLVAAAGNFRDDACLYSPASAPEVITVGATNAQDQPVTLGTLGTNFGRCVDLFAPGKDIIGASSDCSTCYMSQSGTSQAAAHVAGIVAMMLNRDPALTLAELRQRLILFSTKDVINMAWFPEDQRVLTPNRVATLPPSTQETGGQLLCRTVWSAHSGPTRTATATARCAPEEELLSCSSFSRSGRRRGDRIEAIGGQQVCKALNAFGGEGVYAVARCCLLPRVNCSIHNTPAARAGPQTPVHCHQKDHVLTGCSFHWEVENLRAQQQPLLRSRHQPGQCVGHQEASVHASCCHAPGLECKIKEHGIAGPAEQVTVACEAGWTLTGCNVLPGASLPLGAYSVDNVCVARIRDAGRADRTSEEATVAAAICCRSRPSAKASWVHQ
T8 sequence (A8T666 31-692 limits assumed): as the sequence (A8T662 31-692 limits assumed) above, with A607P, E639K counted along it

B1: H1H316P (antibody, V domains shown)
VH: EVQLVESGGGLVQPGGSLRLSCAASGFTFNNYAMNWVRQAPGKGLDWVSTISGSGGTTNYADSVKGRFIISRDSSKHTLYLQMNSLRAEDTAVYYCAKDSNWGNFDLWGRGTLVTVSS
VL: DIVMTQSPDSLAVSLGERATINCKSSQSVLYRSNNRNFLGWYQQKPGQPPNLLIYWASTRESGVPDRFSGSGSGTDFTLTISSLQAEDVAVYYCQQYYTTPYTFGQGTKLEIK
notes: Fully human mAb made in CHO cells; also called mAb316P
- IC50 (Human PCSK9-myc-myc-his [1]): < 125 pM
- Kd (hPCSK9(D374Y)-mmh [2]): 6660 pM
- T1/2 (hPCSK9(D374Y)-mmh [2]): 4 min
- Kd (Human PCSK9-myc-myc-his [3]): 4000 pM
- T1/2 (Human PCSK9-myc-myc-his [3]): 9 min
- Kd (Human PCSK9-myc-myc-his [4]): 339 pM
- T1/2 (Human PCSK9-myc-myc-his [4]): 45 min
- IC50 (Human PCSK9-myc-myc-his [5]): < 125 pM
- IC50 (Human PCSK9-myc-myc-his [6]): < 125 pM
- OD [7]: > 1.5 od
- OD (hPCSK9(D374Y)-mmh [8]): > 1.5 od
- OD [9]: > 1.5 od
- OD [10]: > 1.5 od
- OD [11]: > 1.5 od
- OD [12]: > 1.5 od
- OD (Human PCSK9-myc-myc-his [13]): > 1.5 od
- OD [14]: > 1.5 od
- Kd (hPCSK9(D374Y)-mmh [15]): 166 pM
- T1/2 (hPCSK9(D374Y)-mmh [15]): 13 min
- Kd [16]: 8 pM
- T1/2 [16]: 23 min
- Kd (Human PCSK9-myc-myc-his [17]): 22 pM
- T1/2 (Human PCSK9-myc-myc-his [17]): 39 min
- IC50 (hPCSK9(D374Y)-mmh [18]): 139 pM
- change in RU [19]: 529 RU
- change in RU [20]: 451 RU
- change in RU [21]: 505 RU
- change in RU (Human PCSK9-myc-myc-his [22]): 500 RU
- IC50 (hPCSK9(D374Y)-mmh [23]): 203 pM

- IC50 (Human PCSK9-myc-myc-his [1]): 538 pM
- Kd (hPCSK9(D374Y)-mmh [2]): 2610 pM
- T1/2 (hPCSK9(D374Y)-mmh [2]): 14 min
- Kd (Human PCSK9-myc-myc-his [3]): 2470 pM
- T1/2 (Human PCSK9-myc-myc-his [3]): 20 min
- Kd (Human PCSK9-myc-myc-his [4]): 310 pM
- T1/2 (Human PCSK9-myc-myc-his [4]): 119 min
- IC50 (Human PCSK9-myc-myc-his [5]): < 125 pM
- IC50 (Human PCSK9-myc-myc-his [6]): 146 pM
- OD [7]: > 1.5 od
- OD (hPCSK9(D374Y)-mmh [8]): > 1.5 od
- OD [9]: > 1.5 od
- OD [10]: < 0.7 od
- OD [11]: < 0.7 od
- OD [12]: > 1.5 od
- OD (Human PCSK9-myc-myc-his [13]): > 1.5 od
- OD [14]: > 1.5 od
- Kd (hPCSK9(D374Y)-mmh [15]): 9030 pM
- T1/2 (hPCSK9(D374Y)-mmh [15]): 3 min
- Kd [16]: 38500 pM
- T1/2 [16]: 0.4 min
- Kd (Human PCSK9-myc-myc-his [17]): 3100 pM
- T1/2 (Human PCSK9-myc-myc-his [17]): 5 min
- IC50 (hPCSK9(D374Y)-mmh [18]): 142 pM
- change in RU [19]: 243 RU
- change in RU [20]: 76 RU
- change in RU [21]: 13 RU
- change in RU (Human PCSK9-myc-myc-his [22]): 320 RU
- IC50 (hPCSK9(D374Y)-mmh [23]): 135 pM
B2: H1M300N (antibody, V domains shown)
VH: EMQLVESGGGLVQPGGSLRLSCAASGFTFSSHWMKWVRQAPGKGLEWVANINQDGSEKYYVDSVKGRFTISRDNAKNSLFLQMNSLRAEDTAVYYCARDIVLMVYDMDYYYYGMDVWGQGTTVTVSS
VL: not shown
notes: Fully human version made in CHO cells
